Numbered stars: 1 amine (or outer) side, 2 acyl side, 3 side chain; on linkers, the order of the positions; unused ones are H or OH. Bridge positions count the residues as written; N and C are the ends. Ends that are not written are not given here. Phenylene(1,4-NHCOCH2)2 = O=C(C[*:1])Nc1ccc(NC(=O)C[*:2])cc1
Columns and labels:
WWP1 = molecular target: T1, WWP1 (Homo sapiens, UniProt Q9H0M0); assay: Naive Library Presenter Screening (phage, NGS), WWP1 (construct not given); type: binding; conditions: for interaction data at Target Concentration 10: WWP1 target concentration 10 nM; for interaction data at Target Concentration 30: WWP1 target concentration 30 nM; for interaction data at Target Concentration 100: WWP1 target concentration 100 nM; for interaction data at Target Concentration 300: WWP1 target concentration 300 nM; for interaction data at Target Concentration 1000: WWP1 target concentration 1000 nM
T1 construct: GST-TEV (N, cleaved yes); made in house; host or cells: Escherichia coli BL21 (DE3)

WWP2^HECT = molecular target: T2, WWP2^HECT (Homo sapiens, UniProt O00308); assay: Naive Library Presenter Screening (phage, NGS), WWP2^HECT; type: binding; conditions: for interaction data at Target Concentration 10: WWP2 target concentration 10 nM; for interaction data at Target Concentration 30: WWP2 target concentration 30 nM; for interaction data at Target Concentration 100: WWP2 target concentration 100 nM; for interaction data at Target Concentration 300: WWP2 target concentration 300 nM; for interaction data at Target Concentration 1000: WWP2 target concentration 1000 nM
T2 construct: GST-TEV (N, cleaved yes); made in house; host or cells: Escherichia coli BL21 (DE3)
T2 sequence (O00308 492-865): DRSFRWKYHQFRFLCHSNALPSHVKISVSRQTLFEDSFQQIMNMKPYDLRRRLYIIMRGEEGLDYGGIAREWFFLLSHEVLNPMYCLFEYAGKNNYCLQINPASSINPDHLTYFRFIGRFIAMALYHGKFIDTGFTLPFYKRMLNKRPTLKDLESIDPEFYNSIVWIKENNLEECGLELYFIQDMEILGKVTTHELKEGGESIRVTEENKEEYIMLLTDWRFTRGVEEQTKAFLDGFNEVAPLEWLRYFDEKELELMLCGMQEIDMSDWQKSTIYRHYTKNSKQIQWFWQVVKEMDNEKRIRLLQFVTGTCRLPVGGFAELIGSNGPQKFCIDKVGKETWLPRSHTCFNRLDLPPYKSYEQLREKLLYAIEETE

Sequence	interaction data at Target Concentration 10 (WWP1)	interaction data at Target Concentration 30 (WWP1)	interaction data at Target Concentration 100 (WWP1)	interaction data at Target Concentration 300 (WWP1)	interaction data at Target Concentration 1000 (WWP1; second column)	interaction data at Target Concentration 1000 (WWP1; first column)	interaction data at Target Concentration 10 (WWP2^HECT)	interaction data at Target Concentration 30 (WWP2^HECT)	interaction data at Target Concentration 100 (WWP2^HECT)	interaction data at Target Concentration 300 (WWP2^HECT)	interaction data at Target Concentration 1000 (WWP2^HECT; first column)	interaction data at Target Concentration 1000 (WWP2^HECT; second column)
DPAATLCNQAANVCALL (linker 7-14 via Phenylene(1,4-NHCOCH2)2)	0	0	132	145	197							
DPAFHYCTMAANMCHQD (linker 7-14 via Phenylene(1,4-NHCOCH2)2)	0	0	3	73	169							
DPAFIQCTHAANMCHSS (linker 7-14 via Phenylene(1,4-NHCOCH2)2)	0	3	43		562	336						
DPAFLTCTLAASLCHQD (linker 7-14 via Phenylene(1,4-NHCOCH2)2)	0	0	0	145	253							
DPAHQTCAFAAVLCHQN (linker 7-14 via Phenylene(1,4-NHCOCH2)2)	0	0	32	18	309							
DPAHTACNQAARVCHTL (linker 7-14 via Phenylene(1,4-NHCOCH2)2)	1	4	104	200	253							
DPAIFDCEFAAHVCSVL (linker 7-14 via Phenylene(1,4-NHCOCH2)2)	0	26		436	618	275						
DPAIIRCTSAAMMCHNT (linker 7-14 via Phenylene(1,4-NHCOCH2)2)	0	4	0	55	169	183						
DPAIMSCMYAAEVCRVL (linker 7-14 via Phenylene(1,4-NHCOCH2)2)	0	1	147	109	253	183						
DPAIQRCSTAAQVCRYL (linker 7-14 via Phenylene(1,4-NHCOCH2)2)	0	6	202	236	197							
DPALASCQQAAWVCEVL (linker 7-14 via Phenylene(1,4-NHCOCH2)2)	0	43	173	291	309							
DPALQTCMDAAQVCRLL (linker 7-14 via Phenylene(1,4-NHCOCH2)2)	0	0	107	163	197							
DPAMIACSHAAQMCHWS (linker 7-14 via Phenylene(1,4-NHCOCH2)2)	0	8	3	454	281	275						
DPAMRRCHQAAWVCEVL (linker 7-14 via Phenylene(1,4-NHCOCH2)2)	0	1	98	182	140	183						
DPATYYCEAAAETCRFF (linker 7-14 via Phenylene(1,4-NHCOCH2)2 (inferred); not fully specified (C-terminus))							37	57	70	94	78	123
DPAVWDCRYAAWDCYTN (linker 7-14 via Phenylene(1,4-NHCOCH2)2 (inferred); not fully specified (C-terminus))							0	0	0	28	33	15
DPAVWECRWAAFQCWLD (linker 7-14 via Phenylene(1,4-NHCOCH2)2 (inferred); not fully specified (C-terminus))							0	0	88	86	97	107
DPAYHHCLAAADLCSFF							59	97	107	147	101	141

From US20240376151A1, “STAPLED PEPTIDES AND METHODS THEREOF” (FOG PHARMACEUTICALS, INC., priority 2022, published 2024)
